Data on one molecule can be found in article PMC7857400 (2020).

In experiment [1] the target is T1, SARS-CoV-2 spike protein receptor binding domain (RBD) (SARS-CoV-2, UniProt P0DTC2 319-541). Kind of experiment: SPR.
Experiment [2] deals with T1, SARS-CoV-2 spike protein receptor …. Kind of experiment: SPR. The source holds these as a separate data set.

B1: Nb21 (VHH)
VHH: QVQLVESGGGLVQAGGSLRLSCAVSGLGAHRVGWFRRAPGKEREFVAAIGANGGNTNYLDSVKGRFTISRDNAKNTIYLQMNSLKPQDTAVYYCAARDIETAEYTYWGQGTQVTVSS
Usually koff stands for the first-order rate constant of dissociation. A higher koff goes with a short-lived complex. Broadly, the Kd is the equilibrium constant for the complex coming apart. Lower therefore signals tighter binding. B1: the koff in experiment [1] was < 1e-06 s⁻¹. Besides, the Kd in experiment [2] was < 1 pM.
